Results as given in FireProtDB (doi:10.1021/bi00066a003).

Conditions: Geobacillus stearothermophilus, pH 7.5, 25 °C, Fluorescence, TEA 50 mM, reversible: yes, whole UniProt chain shown

B1: Phosphoglycerate kinase wild type, P18912 (protein)
chain: MNKKTIRDVDVRGKRVFCRVDFNVPMEQGAITDDTRIRAALPTIRYLIEHGAKVILASHLGRPKGKVVEELRLDAVAKRLGELLERPVAKTNEAVGDEVKAAVDRLNEGDVLLLENVRFYPGEEKNDPELAKAFAELADLYVNDAFGAAHRAHASTEGIAHYLPAVAGFLMEKELEVLGKALSNPDRPFTAIIGGAKVKDKIGVIDNLLEKVDNLIIGGGLAYTFVKALGHDVGKSLLEEDKIELAKSFMEKAKEKGVRFYMPVDVVVADRFANDANTKVVPIDAIPADWSALDIGPKTRELYRDVIRESKLVVWNGPMGVFEMDAFAHGTKAIAEALAEALDTYSVIGGGDSAAAVEKFGLADKMDHISTGGGASLEFMEGKQLPGVVALEDK
- unfolding free energy (GdnHCl): 4.35 kcal/mol
- unfolding free energy (Urea): 4.21 kcal/mol
